Experimental data reported in PMC11076555, “Dishevelled2 activates WGEF via its interaction with a unique internal peptide motif of the GEF” (Communications Biology, 2024).

B1: Dvl2^PDZ: recombinant PDZ domain of human Dishevelled2 (protein)
chain: MSLNIITVTLNMEKYNFLGISIVGQSNERGDGGIYIGSIMKGGAVAADGRIEPGDMLLQVNDMNFENMSNDDAVRVLRDIVHKPGPIVLTVAKC
modifications: Monolith Red-maleimide 2nd generation cysteine-reactive fluorescent label (in the MST experiments); left off: His6, N-terminal, cleaved
notes: recombinant PDZ domain of human Dishevelled2
B2: hWGEF: recombinant human WGEF construct, residues from 330 to 581 (protein)
chain: PPRANLSPSSSFRAQRSARGSTFSLWQDIPDVRGSGVLATLSLRDCKLQEAKFELITSEASYIHSLSVAVGHFLGSAELSECLGAQDKQWLFSKLPEVKSTSERFLQDLEQRLEADVLRFSVCDVVLDHCPAFRRVYLPYVTNQAYQERTYQRLLLENPRFPGILARLEESPVCQRLPLTSFLILPFQRITRLKMLVENILKRTAQGSEDEDMATKAFNALKELVQECNASVQSMKRTEELIHLSKKIHFEG
modifications: left off: GST, N-terminal, cleaved

Experiments:
xWGEF330 = test: In vitro guanine nucleotide exchange (GEF) assay, activation of xWGEF330 by Dvl2^PDZ; format: biochemical, Xenopus laevis; conditions: 5 µM xWGEF330, 2 µM Mant-GDP loaded RhoA, 25 °C, triplicates
Description: Guanine nucleotide exchange assays were carried out using RhoA loaded with fluorescently labelled Mant-GDP[63],[64]. Briefly, 150 μM of RhoA was incubated with 5 Molar excess of fluorescent label, i.e., Mant-GDP in a buffer containing 10 mM Tris pH 8, 150 mM NaCl, 2 mM DTT, 5 mM EDTA, 0.5 mM MgCl2 and 5% Glycerol. The reaction was incubated on ice for 30 min, followed by the addition of 10 mM MgCl2 to stop the reaction. Excess Mant-GDP was removed through buffer exchange and Mant-GDP loaded RhoA was concentrated and stored at −80 °C. For assays, 2 μM of Mant-GDP loaded RhoA was incubated with 5 μM of xWGEF in the presence or absence of hDvl2^PDZ (0 μM, 25 μM and 50 μM) for 30 min at 25 °C. […] Once the fluorescence was stable, excess GTP (10x of labelled GTPase) was added to start the exchange reaction. […] A decrease in fluorescence was recorded using a BioTek Cytation5 plate reader with excitation and emission of 360 and 440 nm, respectively. Fluorescence was normalized and decrease was fitted using a single exponential decay mode in GraphPad Prism. […]
Guanine nucleotide exchange assays were performed in triplicates. Fluorescence decrease was fitted using a single exponential decay mode in GraphPad Prism. […]

[1] = molecular target: T1, Dvl2^PDZ (PDZ domain of human Dishevelled2) (Homo sapiens, UniProt O14641); test: Microscale thermophoresis (MST) binding to Dvl2^PDZ; conditions: Monolith NT.115, 50 nM Red-maleimide labelled Dvl2^PDZ, 10 mM Tris–HCl pH 8, 150 mM NaCl, 2 mM DTT, 5% glycerol, 0.05% Tween20, 30 min at 25 °C, peptides diluted 1:2 16 times from ~3.4 mM, hWGEF 138–0.0042 µM, Kd fit model, triplicates, read-out: Kd (dissociation constant) for Dvl2^PDZ
T1 construct: introducing a stop codon after C354 residue of Dvl2^PDZ to eliminate the fused peptide, cloned at the C-termini of PDZ; 6xHis (N, cleaved yes); host or cells: E. coli Rosetta (DE3)
T1 sequence (O14641 267-339 limits assumed): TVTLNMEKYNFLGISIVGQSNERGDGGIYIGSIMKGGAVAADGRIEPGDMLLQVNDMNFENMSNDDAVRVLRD
Description: MST experiments were performed using Monolith NT.115 instrument from Nanotemper technologies. Dvl2^PDZ domain was fluorescently labelled as per the instructions, using Monolith Redmaleimide 2nd generation-cysteine reactive label. The experimental condition consists of 10 mM Tris–HCl pH8, 150 mM NaCl, 2 mM DTT, 5% Glycerol and 0.05% Tween20. For Dvl2^PDZ-peptide affinity determination, synthetic WGEF peptides were serially diluted (1:2) 16 times, starting from an approximate concentration of 3.4 mM. 50 nM of fluorescently labelled Dvl2^PDZ domain was added to the serially diluted peptides, followed by incubation at 25 °C for 30 minutes. Thermophoresis signals were recorded at 20% of excitation power and 40% MST at 25 °C. Data was fitted using the Kd fit model in the MO. Affinity Analysis v2.3 software. Like peptides, hWGEF (330–581) protein was serially diluted to obtain a protein concentration range of 138–0.0042 µM. Experimental conditions were the same as mentioned above for peptides. […]
Guanine nucleotide exchange assays were performed in triplicates. Fluorescence decrease was fitted using a single exponential decay mode in GraphPad Prism. […] Statistical significance was calculated using ordinary One-way ANOVA with multiple comparisons. * Represents adjust P value with statistical significance of ****P < 0.0001, ***P < 0.001, **P < 0.01 and *P ≤ 0.01. […]

Molecule	Change in GEF activity of xWGEF330 (xWGEF330; 25 µM Dvl2^PDZ)	Change in GEF activity of xWGEF330 (xWGEF330; 50 µM Dvl2^PDZ (10-fold excess))	Kd [1] [µM]
B1	did not show any observable change	fourfold increase	
B2			7.9 ± 0.3
